Experimental data taken from the supplement of paper PMC10567573.

B1: PTPRD (parent)
chain: ITWFKDFLPVDTSNNNGRIKQLRS

Variants of: B1
Experiment: protein stability index of a GFP-peptide fusion (GPS, HEK-293T) (PSI 1-6); higher = more stable
Details: c terminus: a fixed tail appended
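Further: lentivirally expressed fusions sorted by FACS into six bins by GFP to DsRed ratio, PSI derived from sequencing read proportions per bin multiplied by bin number.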

Variant | protein stability index
ITWFKDFLPVDTSNNNGRIKCLRS [Q21C] | 1.52
ITWFKDFLPVDTSNNNGRIKALRS [Q21A] | 1.57
ITWFKDFLPVDTSNNNGRPKQLRS [I19P] | 1.69
ITWFKDFLPVDTSNNNGRHKQLRS [I19H] | 1.53
ITWFKDFLPVDTSNNNGRQKQLRS [I19Q] | 2.57
ITWFKDFLPVDTSNNNGRKKQLRS [I19K] | 2.33
ITWFKDFLPVDTSNNNGRTKQLRS [I19T] | 2.23
ITWFKDFLPVDTSNNNGRGKQLRS [I19G] | 2.24
ITWFKDFLPVDTSNNNGRYKQLRS [I19Y] | 2.13
ITWFKDFLPVDTSNNNGRCKQLRS [I19C] | 1.69
ITWFKDFLPVDTSNNNGRLKQLRS [I19L] | 2.07
ITWFKDFLPVDTSNNNGRVKQLRS [I19V] | 1.73
ITWFKDFLPVDTSNNNGRRKQLRS [I19R] | 1.84
ITWFKDFLPVDTSNNNGREKQLRS [I19E] | 1.95
ITWFKDFLPVDTSNNNGRSKQLRS [I19S] | 1.54
ITWFKDFLPVDTSNNNGRNKQLRS [I19N] | 1.95
ITWFKDFLPVDTSNNNGRWKQLRS [I19W] | 1.46
ITWFKDFLPVDTSNNNGRMKQLRS [I19M] | 2.04
ITWFKDFLPVDTSNNNGRAKQLRS [I19A] | 1.72
ITWFKDFLPVDTSNNNGRFKQLRS [I19F] | 2.25
ITWFKDFLPVDTSNNNGRDKQLRS [I19D] | 2.08
ITWFKDFLPVDTSNNNPRIKQLRS [G17P] | 1.73
ITWFKDFLPVDTSNNNMRIKQLRS [G17M] | 1.34
ITWFKDFLPVDTSNNNHRIKQLRS [G17H] | 1.37

Variant | protein stability index
ITWFKDFLPVDTSNNNQRIKQLRS [G17Q] | 2.15
ITWFKDFLPVDTSNNNVRIKQLRS [G17V] | 1.31
ITWFKDFLPVDTSNNNARIKQLRS [G17A] | 1.58
ITWFKDFLPVDTSNNNKRIKQLRS [G17K] | 2.86
ITWFKDFLPVDTSNNNWRIKQLRS [G17W] | 2.63
ITWFKDFLPVDTSNNNDRIKQLRS [G17D] | 2.09
ITWFKDFLPVDTSNNNRRIKQLRS [G17R] | 1.5
ITWFKDFLPVDTSNNNFRIKQLRS [G17F] | 2.33
ITWFKDFLPVDTSNNNTRIKQLRS [G17T] | 2.25
ITWFKDFLPVDTSNNNNRIKQLRS [G17N] | 1.86
ITWFKDFLPVDTSNNNIRIKQLRS [G17I] | 1.53
ITWFKDFLPVDTSNNNSRIKQLRS [G17S] | 2.33
ITWFKDFLPVDTSNNNLRIKQLRS [G17L] | 1.73
ITWFKDFLPVDTSNNNERIKQLRS [G17E] | 2.62
ITWFKDFLPVDTSNNNYRIKQLRS [G17Y] | 1.78
ITWFKDFLPVDTSNNNCRIKQLRS [G17C] | 1.88
ITWFKDFLPVDTSNNVGRIKQLRS [N16V] | 2.62
ITWFKDFLPVDTSNNPGRIKQLRS [N16P] | 2.32
ITWFKDFLPVDTSNNMGRIKQLRS [N16M] | 1.43
ITWFKDFLPVDTSNNGGRIKQLRS [N16G] | 1.7
ITWFKDFLPVDTSNNWGRIKQLRS [N16W] | 2.17
ITWFKDFLPVDTSNNLGRIKQLRS [N16L] | 1.73
ITWFKDFLPVDTSNNIGRIKQLRS [N16I] | 2.32
ITWFKDFLPVDTSNNFGRIKQLRS [N16F] | 1.82

Variant | protein stability index
ITWFKDFLPVDTSNNQGRIKQLRS [N16Q] | 2.26
ITWFKDFLPVDTSNNSGRIKQLRS [N16S] | 1.98
ITWFKDFLPVDTSNNKGRIKQLRS [N16K] | 1.98
ITWFKDFLPVDTSNNYGRIKQLRS [N16Y] | 1.71
ITWFKDFLPVDTSNNHGRIKQLRS [N16H] | 1.58
ITWFKDFLPVDTSNNEGRIKQLRS [N16E] | 2.02
ITWFKDFLPVDTSNNTGRIKQLRS [N16T] | 2.38
ITWFKDFLPVDTSNNRGRIKQLRS [N16R] | 1.65
ITWFKDFLPVDTSNNNGTIKQLRS [R18T] | 1.93
ITWFKDFLPVDTSNNNGQIKQLRS [R18Q] | 2.24
ITWFKDFLPVDTSNNNGKIKQLRS [R18K] | 1.68
ITWFKDFLPVDTSNNNGPIKQLRS [R18P] | 2.08
ITWFKDFLPVDTSNNNGLIKQLRS [R18L] | 1.45
ITWFKDFLPVDTSNNNGWIKQLRS [R18W] | 1.62
ITWFKDFLPVDTSNNNGAIKQLRS [R18A] | 1.8
ITWFKDFLPVDTSNNNGHIKQLRS [R18H] | 2.77
ITWFKDFLPVDTSNNNGDIKQLRS [R18D] | 1.83
ITWFKDFLPVDTSNNNGCIKQLRS [R18C] | 2.83
ITWFKDFLPVDTSNNNGSIKQLRS [R18S] | 1.95
ITWFKDFLPVDTSNNNGVIKQLRS [R18V] | 2.33
ITWFKDFLPVDTSNNNGYIKQLRS [R18Y] | 2.1
ITWFKDFLPVDTSNNNGGIKQLRS [R18G] | 2.73
ITWFKDFLPVDTSNNNGFIKQLRS [R18F] | 2.04
ITWFKDFLPVDTSNNNGEIKQLRS [R18E] | 1.87

Variant | protein stability index
ITWFKDFLPVDTSNNNGNIKQLRS [R18N] | 1.97
ITWFKDFLPVDTSNNNGMIKQLRS [R18M] | 1.63
ITWFKDFLPVDTSNNNGIIKQLRS [R18I] | 1.74
ITWFKDFLPVDTSNNNGRIDQLRS [K20D] | 2.05
ITWFKDFLPVDTSNNNGRIHQLRS [K20H] | 1.63
ITWFKDFLPVDTSNNNGRIGQLRS [K20G] | 1.58
ITWFKDFLPVDTSNNNGRIQQLRS [K20Q] | 1.94
ITWFKDFLPVDTSNNNGRISQLRS [K20S] | 2.72
ITWFKDFLPVDTSNNNGRITQLRS [K20T] | 1.95
ITWFKDFLPVDTSNNNGRILQLRS [K20L] | 2
ITWFKDFLPVDTSNNNGRICQLRS [K20C] | 1.43
ITWFKDFLPVDTSNNNGRIVQLRS [K20V] | 1.68
ITWFKDFLPVDTSNNNGRIRQLRS [K20R] | 1.53
ITWFKDFLPVDTSNNNGRIWQLRS [K20W] | 1.95
ITWFKDFLPVDTSNNNGRIIQLRS [K20I] | 1.31
ITWFKDFLPVDTSNNNGRIEQLRS [K20E] | 1.74
ITWFKDFLPVDTSNNNGRIFQLRS [K20F] | 1.98
ITWFKDFLPVDTSNNNGRIPQLRS [K20P] | 1.61
ITWFKDFLPVDTSNNNGRIMQLRS [K20M] | 1.55
ITWFKDFLPVDTSNNNGRIYQLRS [K20Y] | 2.19
ITWFKDFLPVDTSNNNGRINQLRS [K20N] | 2.08
ITWFKDFLPVDTSNNNGRIAQLRS [K20A] | 1.66
